The supplement of paper PMC9112550, “Optimization of the antimicrobial peptide Bac7 by deep mutational scanning” (BMC Biology, 2022)

These sequences were tested on Escherichia coli TOP10 (assay: shrunken log2 fold change of peptide-encoding DNA abundance (4.5 h post-induction vs induction); higher = less antimicrobial activity (less host growth inhibition)). Settings: time post-induction: 4.5 h; library: site-saturation at positions 5, 18, 19, 20.
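Further: peptides expressed intracellularly from a pBAD plasmid library in pooled LB shake-flask culture, induced with 0.3% L-arabinose, DNA abundance read by NGS, three biological replicates, DESeq2 with apeglm shrinkage.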

| Sequence | shrunken log2 fold change |
| --- | --- |
| RRIRVRPPRLPRPRPRPILHPRP | 1.12 |
| RRIRIRPPRLPRPRPRPYLVPRP | -0.289 |
| RRIRSRPPRLPRPRPRPMGKPRP | -0.00865 |
| RRIRWRPPRLPRPRPRPWCIPRP | -0.225 |
| RRIRRRPPRLPRPRPRPRIRPRP | 0.179 |
| RRIRYRPPRLPRPRPRPFDAPRP | -0.485 |
| RRIRTRPPRLPRPRPRPAQIPRP | 0.358 |
| RRIRWRPPRLPRPRPRPCWPPRP | 0.427 |
| RRIRMRPPRLPRPRPRPEVNPRP | 0.156 |
| RRIRHRPPRLPRPRPRPRPSPRP | 0.466 |
| RRIRMRPPRLPRPRPRPKITPRP | 0.19 |
| RRIRVRPPRLPRPRPRPEPFPRP | 0.0811 |
| RRIRQRPPRLPRPRPRPASMPRP | -0.39 |
| RRIRFRPPRLPRPRPRPIWRPRP | 0.248 |
| RRIRERPPRLPRPRPRPQRHPRP | 1.63 |
| RRIRCRPPRLPRPRPRPAAYPRP | -0.101 |
| RRIRARPPRLPRPRPRPAWPPRP | 0.582 |
| RRIRIRPPRLPRPRPRPSETPRP | -0.297 |
| RRIRIRPPRLPRPRPRPRSAPRP | 0.0737 |
| RRIRIRPPRLPRPRPRPLFKPRP | -0.773 |
| RRIRDRPPRLPRPRPRPQQEPRP | 0.00606 |
| RRIRWRPPRLPRPRPRPGFNPRP | 0.00388 |
| RRIRWRPPRLPRPRPRPWTNPRP | 0.0442 |
| RRIRGRPPRLPRPRPRPPMAPRP | 0.94 |
| RRIRHRPPRLPRPRPRPTIHPRP | -0.552 |

| Sequence | shrunken log2 fold change |
| --- | --- |
| RRIRRRPPRLPRPRPRPAVQPRP | 0.0814 |
| RRIRYRPPRLPRPRPRPQTYPRP | -0.755 |
| RRIRARPPRLPRPRPRPAPQPRP | 0.932 |
| RRIRVRPPRLPRPRPRPGIIPRP | 0.136 |
| RRIRYRPPRLPRPRPRPYAKPRP | -1.76 |
| RRIRIRPPRLPRPRPRPWVDPRP | 0.0772 |
| RRIRCRPPRLPRPRPRPAVIPRP | -0.383 |
| RRIRKRPPRLPRPRPRPVFKPRP | 0.288 |
| RRIRNRPPRLPRPRPRPIDAPRP | 0.0153 |
| RRIRFRPPRLPRPRPRPTFFPRP | -0.169 |
| RRIRQRPPRLPRPRPRPYQQPRP | -0.0082 |
| RRIRERPPRLPRPRPRPCRHPRP | -0.00171 |
| RRIRCRPPRLPRPRPRPMCMPRP | -0.232 |
| RRIRIRPPRLPRPRPRPYDHPRP | -0.285 |
| RRIRYRPPRLPRPRPRPSYDPRP | -0.442 |
| RRIRQRPPRLPRPRPRPTTVPRP | -0.114 |
| RRIRARPPRLPRPRPRPGVKPRP | 0.0545 |
| RRIRARPPRLPRPRPRPRVNPRP | 0.631 |
| RRIRWRPPRLPRPRPRPVHWPRP | 0.138 |
| RRIRLRPPRLPRPRPRPRTLPRP | -0.166 |
| RRIRVRPPRLPRPRPRPWHCPRP | -0.0339 |
| RRIRPRPPRLPRPRPRPACCPRP | 0.405 |
| RRIRKRPPRLPRPRPRPGMKPRP | 0.516 |
| RRIRTRPPRLPRPRPRPVNVPRP | -0.172 |
| RRIRFRPPRLPRPRPRPGIVPRP | -0.0228 |

| Sequence | shrunken log2 fold change |
| --- | --- |
| RRIRLRPPRLPRPRPRPIPDPRP | 0.00718 |
| RRIRYRPPRLPRPRPRPYVLPRP | -0.35 |
| RRIRCRPPRLPRPRPRPIHYPRP | -0.95 |
| RRIRHRPPRLPRPRPRPVDFPRP | 0.0522 |
| RRIRPRPPRLPRPRPRPEDLPRP | 0.0558 |
| RRIRLRPPRLPRPRPRPFQQPRP | 0.0873 |
| RRIRSRPPRLPRPRPRPVVKPRP | -0.14 |
| RRIRSRPPRLPRPRPRPMNVPRP | -0.0106 |
| RRIRWRPPRLPRPRPRPSTMPRP | -0.284 |
| RRIRHRPPRLPRPRPRPNICPRP | -0.925 |
| RRIRFRPPRLPRPRPRPTNAPRP | -0.143 |
| RRIRYRPPRLPRPRPRPNNSPRP | -0.52 |
| RRIRPRPPRLPRPRPRPCTTPRP | -0.732 |
| RRIRERPPRLPRPRPRPSYIPRP | -0.216 |
| RRIRRRPPRLPRPRPRPDSAPRP | 0.288 |
| RRIRQRPPRLPRPRPRPQQKPRP | -0.023 |
| RRIRDRPPRLPRPRPRPPTTPRP | 0.151 |
| RRIRSRPPRLPRPRPRPTNSPRP | -0.24 |
| RRIRKRPPRLPRPRPRPYMMPRP | -0.103 |
| RRIRMRPPRLPRPRPRPSNWPRP | 0.225 |
| RRIRIRPPRLPRPRPRPQYDPRP | -0.043 |
| RRIRARPPRLPRPRPRPDSHPRP | -0.779 |
| RRIRCRPPRLPRPRPRPQYSPRP | -0.273 |
| RRIRQRPPRLPRPRPRPEWPPRP | -0.0954 |
| RRIRLRPPRLPRPRPRPYKEPRP | -0.0365 |

| Sequence | shrunken log2 fold change |
| --- | --- |
| RRIRMRPPRLPRPRPRPKLVPRP | 0.115 |
| RRIRTRPPRLPRPRPRPLNLPRP | -0.548 |
| RRIRARPPRLPRPRPRPLDIPRP | 0.0659 |
| RRIRERPPRLPRPRPRPEFTPRP | 0.0663 |
| RRIRTRPPRLPRPRPRPVQDPRP | -0.00469 |
| RRIRQRPPRLPRPRPRPWPWPRP | 0.0839 |
| RRIRFRPPRLPRPRPRPCADPRP | -0.102 |
| RRIRGRPPRLPRPRPRPFDKPRP | -0.663 |
| RRIRLRPPRLPRPRPRPHKHPRP | -0.53 |
| RRIRMRPPRLPRPRPRPVYEPRP | 0.352 |
| RRIRIRPPRLPRPRPRPFSTPRP | -0.38 |
| RRIRWRPPRLPRPRPRPKMMPRP | -0.106 |
| RRIRTRPPRLPRPRPRPDDVPRP | -0.102 |
| RRIRIRPPRLPRPRPRPAQAPRP | 0.2 |
| RRIRNRPPRLPRPRPRPKDTPRP | -0.018 |
| RRIRLRPPRLPRPRPRPTLRPRP | 0.161 |
| RRIRMRPPRLPRPRPRPIQLPRP | -0.0799 |
| RRIRPRPPRLPRPRPRPPNVPRP | -0.0451 |
| RRIRVRPPRLPRPRPRPSYQPRP | -0.34 |
| RRIRFRPPRLPRPRPRPIYTPRP | -0.424 |
| RRIRCRPPRLPRPRPRPFIAPRP | -0.613 |
| RRIRERPPRLPRPRPRPRQEPRP | 0.315 |
| RRIRMRPPRLPRPRPRPNTQPRP | 0.0014 |
| RRIRHRPPRLPRPRPRPKCAPRP | -0.0408 |
| RRIRERPPRLPRPRPRPEMGPRP | -0.116 |

| Sequence | shrunken log2 fold change |
| --- | --- |
| RRIRHRPPRLPRPRPRPQLPPRP | 0.181 |
| RRIRQRPPRLPRPRPRPTTMPRP | -0.11 |
| RRIRGRPPRLPRPRPRPTSCPRP | 0.401 |
| RRIRDRPPRLPRPRPRPSFCPRP | -0.0945 |
| RRIRIRPPRLPRPRPRPVEFPRP | -0.0453 |
| RRIRVRPPRLPRPRPRPGQKPRP | 0.00253 |
| RRIRKRPPRLPRPRPRPTREPRP | 0.48 |
| RRIRYRPPRLPRPRPRPVQTPRP | -0.00992 |
| RRIRRRPPRLPRPRPRPYELPRP | -0.297 |
| RRIRARPPRLPRPRPRPRQWPRP | 0.68 |
| RRIRKRPPRLPRPRPRPMTYPRP | -0.212 |
| RRIRQRPPRLPRPRPRPDDWPRP | 0.0952 |
| RRIRKRPPRLPRPRPRPWFNPRP | -0.209 |
| RRIRGRPPRLPRPRPRPVQFPRP | 0.535 |
| RRIRWRPPRLPRPRPRPHEEPRP | 0.0119 |
| RRIRYRPPRLPRPRPRPQTLPRP | -0.088 |
| RRIRPRPPRLPRPRPRPKDRPRP | -0.114 |
| RRIRVRPPRLPRPRPRPVCKPRP | -0.444 |
| RRIRDRPPRLPRPRPRPQADPRP | 0.103 |
| RRIRERPPRLPRPRPRPFHEPRP | -0.0823 |
| RRIRGRPPRLPRPRPRPRDIPRP | 0.373 |
| RRIRHRPPRLPRPRPRPMTYPRP | -0.19 |
| RRIRERPPRLPRPRPRPETQPRP | 0.0866 |
| RRIRCRPPRLPRPRPRPMMPPRP | -0.11 |
| RRIRTRPPRLPRPRPRPVMKPRP | 0.00771 |

| Sequence | shrunken log2 fold change |
| --- | --- |
| RRIRGRPPRLPRPRPRPICWPRP | 0.714 |
| RRIRERPPRLPRPRPRPNAMPRP | 0.0107 |
| RRIRGRPPRLPRPRPRPLMGPRP | 0.373 |
| RRIRFRPPRLPRPRPRPRNCPRP | -0.132 |
| RRIRFRPPRLPRPRPRPLFMPRP | -0.36 |
| RRIRCRPPRLPRPRPRPDAQPRP | 0.456 |
| RRIRIRPPRLPRPRPRPARSPRP | 0.0389 |
| RRIRCRPPRLPRPRPRPETFPRP | 0.07 |
| RRIRHRPPRLPRPRPRPFVKPRP | -1.48 |
| RRIRSRPPRLPRPRPRPTIEPRP | -0.0439 |
| RRIRVRPPRLPRPRPRPIHDPRP | -0.0895 |
| RRIRWRPPRLPRPRPRPYMVPRP | -0.844 |
| RRIRFRPPRLPRPRPRPRCKPRP | 0.0452 |
| RRIRPRPPRLPRPRPRPRHKPRP | -0.0467 |
| RRIRPRPPRLPRPRPRPNMAPRP | 0.478 |
| RRIRRRPPRLPRPRPRPRVCPRP | 0.89 |
| RRIRGRPPRLPRPRPRPHQPPRP | 0.18 |
| RRIRHRPPRLPRPRPRPKQCPRP | -0.224 |
| RRIRSRPPRLPRPRPRPYEYPRP | -0.55 |
| RRIRWRPPRLPRPRPRPQARPRP | 0.19 |
| RRIRTRPPRLPRPRPRPDCFPRP | -0.138 |
| RRIRCRPPRLPRPRPRPKMWPRP | 1.22 |
| RRIRWRPPRLPRPRPRPWNLPRP | -0.0421 |
| RRIRARPPRLPRPRPRPSTSPRP | -0.322 |
| RRIRIRPPRLPRPRPRPNNPPRP | -0.471 |
